These results are taken from patent US20040087506A1, “Methods of modulating FabH activity” (SmithKline Beecham Corporation, priority 1999, published 2004).

Substrate in this data set: CC(=O)SCCNC(=O)CCNC(=O)[C@H](O)C(C)(C)COP(=O)(O)OP(=O)(O)OC[C@H]1O[C@@H](n2cnc3c(N)ncnc32)[C@H](O)[C@@H]1OP(=O)(O)O
The experiment in a line: purified protein, by the assay type. As to conditions: other: substrate of FabH; ping-pong mechanism, acetyl-CoA first substrate, malonyl-ACP second.

B1: E. coli FabH (Escherichia coli K-12) (protein)
chain: MYTKIIGTGSYLPEQVRTNADLEKMVDTSDEWIVTRTGIRERHIAAPNETVSTMGFEAATRAIEMAGIEKDQIGLIVVATTSATHAFPSAACQIQSMLGIKGCPAFDVAAACAGFTYALSVADQYVKSGAVKYALVVGSDVLARTCDPTDRGTIIIFGDGAGAAVLAASEEPGIISTHLHADGSYGELLTLPNADRVNPENSIHLTMAGNEVFKVAVTELAHIVDETLAANNLDRSQLDWLVPHQANLRIISATAKKLGMSMDNVVVTLDRHGNTSAASVPCALDEAVRDGRIKPGQLVLLEAFGGGFTWGSALVRF
B1: the Km came to 34 µM.

What is called Km is the concentration of substrate that gives half-maximal velocity.
